Results taken from the DeepSol protein solubility set.

Test: soluble on expression in E. coli; label from the status in PepcDB or PDB records
For “MGSDKIHHHHHHMKFLPLIAMCLFLTGCVGDRSDLELFVTTTKAQHVAHIPPLKEPPRFEHFAYQAELMRSPFVPPSRELTEEVVDTSKDCLQPDLKRRKGRLETYPLDNLKMRGTLSEADTTWALVETNDGSVYRMGTGEYLGLFNGRISKVTSQNVEVVELIPDGSGCWSERTSNLELSGE”, the “soluble on expression in E. coli” value was “not soluble”. In the case of “MAHHHHHHMGVGFQSKKLQNFCHSGAGEMCALENCIPRWGSFPCNAPGLTPVYELSSFENVELPLIFQKSNIGDLLASTSDSVGQLNGFQARHSNTEGIKSQVSYTSVALSTTNRENLFGWVDCAALPLCSSSTAGASILLVTLLTRESRGKSCMCILDDLVCQLSNGPFNWGCGGDCHDLISISLPSEPRNHAACPIILPIAKLSRKEIWLREAAPKMDVETIIYEGDNQQHLVDDVANGTNAGSCAVMEAGCRPETALGPENVKYGDNESVTQCEVTVDITPSTEPSARCLHFSECTTPVSSNRSFMEPIPLSNMESKALRCRKFDGTSYEVLRRRAHSDALSLILKKYSEHF”, the “soluble on expression in E. coli” value was “not soluble”. For “MPSIYKSVTINTSKEMMCFSDFPVPDHFPNYMHNSKLMDYFGMYATHFGLLNYIRFKTEVQSVRKHPDFSINGQWDVVVETEEKQETLVFDGVLVCSGHHTDPYLPLQSFPGIEKFEGCYFHSREYKSPEDFSGKRIIVIGIGNSGVDIAVELSRVAKQI”, the “soluble on expression in E. coli” value was “not soluble”. With “MPKPVIAIVGRPNVGKSTIFNRIVGERVSIVEDIPGVTRDRIYSAGEWLNHEFNIIDTGGIDIGDEPFLTQIRQQAEVAIDEADVIIFMTNGRDGVTAADEEVAKILYRSNKPVVLAVNKVDNPEMRSDIYDFYALGFGEPFPISGTHGLGLGDLLDEAAQHFPKIEEDGYDEDTIRFSLIGRPNVGKSSLVNALLGQERVIVSNVAGTTRDAVDTPYSKDGKDYVIIDTAGMRKKGKVYESTEKYSVLRALRAIERSDVVLVVLDGEEGIIEQDKKIAGYAHDSGRAVVIVVNKWDAVKKDEKTMKAFEENIRAHFQFLEYAPIVFLSAKTRKRTQTLIPVIDEVNESHSIRIQTNVLNDVIMDAVAMNPTPTHNGSRLKIFYATQVAVKPPTFVVFVNDPELLHFSYERFLKNRLRESFGFVGTPIHIIARARD” the “soluble on expression in E. coli” value was “soluble”. In the case of “MFCDRIRGSLTKDKERIMSSKNYIDVIIDGKIYNIGGFESEAYLQKVASYINNMIAEFKQNENYRVQKVDMQRILLEINIANDYFKAKKQADLLQNDIELKEKEVYDLKHELIVSDSKAETATKELNEALEKIESLEKEIIKLQTELEK”, the “soluble on expression in E. coli” value was “not soluble”. In the case of “MIKLAPAGLKDDIEMRKVYAGFIAGQIEAGSPIIALEADLMSSMAMDSVARDYPQHVINCGIMEANVIGTAAGLALTGRKPFVHTFTAFASRRCFDQLFMALDYQRNNVKVIASDAGVTACHNGGTHMSFEDMGIVRGLAHSVVLEVTDAVMFADILRQLMDLDGFYWLRTIRKQARSIYAPGSTFTIGKGNVLREGDDITLIANGIMVAEALEAARQLEQEGVSAAVIDMFTLKPIDRMLVKNYAEKTRRIVTCENHSIHNGLGSAVAEVLVENCPVPMRRVGVKERYGQVGTQDFLQKEYGLTAEAIVEAAKSLL”, the “soluble on expression in E. coli” value was “not soluble”. In the case of “MGSDKIHHHHHHMTVQQFIKKLVRLVELERNAEINAMLDEMKRLSGEEREKKGRAVLGLTGKFIGEELGYFLVRFGRRKKIDTEIGVGDLVLISKGNPLKSDYTGTVVEKGERFITVAVDRLPSWKLKNVRIDLFASDITFRRQIENLMTLSSEGKKALEFLLGKRKPEESFEEEFTPFDEGLNESQREAVSLALGSSDFFLIHGPFGTGKTRTLVEYIRQEVARGKKILVTAESNLAVDNLVERLWGKVSLVRIGHPSRVSSHLKESTLAHQIETSSEYEKVKKMKEELAKLIKKRDSFTKPSPQWRRGLSDKKILEYAEKNWSARGVSKEKIKEMAEWIKLNSQIQDIRDLIERKEEIIASRIVREAQVVLSTNSSAALEILSGIVFDVVVVDEASQATIPSILIPISKGKKFVLAGDHKQLPPTILSEDAKDLSRTLFEELITRYPEKSSLLDTQYRMNELLMEFPSEEFYDGKLKAAEKVRNITLFDLGVEIPNFGKFWDVVLSPKNVLVFIDTKNRSDRFERQRKDSPSRENPLEAQIVKEVVEKLLSMGVKEDWIGIITPYDDQVNLIRELIEAKVEVHSVDGFQGREKEVIIISFVRSNKNGEIGFLEDLRRLNVSLTRAKRKLIATGDSSTLSVHPTYRRFVEFVKKKGTYVIF”, the “soluble on expression in E. coli” value was “not soluble”. For “MSDEWEQLTVELRKIPRGTEAAPQYLRHLMKMFVADFETAVSKRFDVKFWNKLKSMMDEITKAMENDRLVNHNVQNLAIGFLTDLSLLVHYHYEIPNYGNDISKQLTWTPDVFLNRKPIKSKKNSRVFMAYVLLRMGDLMRYKENYPKAQEYYEQSCRINPADGAVWNQLGLISSLGAKNLESVYFHTRALHATMEFPTASGGLTNIFKNFANRDISRPMPIKDLYLSCLGRIHFLLEIEDSSVHLQKIGEEAATSKEMIVPLMSVYKHLEDGTELEQRAVEYVKTIWCTAYRSLLKTLDDYKEESKKLADVPHLLHILALLLCAPKLLRGIEDQTEDEVTSICEWLLCANCDEKIKDSDAFGYFHCLQRIQYPLTRTQLAQKLVEIEDEDESKDSDQSTIPEEDQKSLSTDTSRIQNEDSEPESESESSDEEVLQRGRRRGRNPNLDESVETDEDEF”, the “soluble on expression in E. coli” value was “not soluble”. With “MGSDKIHHHHHHMSMAMEHDLLIVGGGPVGATLALALQYKGIDATVLEARAHGAAHHDQRALALSYGSILILERLGLWSGLKPKATAINTIHVSQRGSLGRSLLKAEDHDQPALGYVLSYGDLSAALDDAIRQFPGIQVRYEAEALAIKPGREAAHVEYQYQAQAYSCNSRMTVLADGGRSLADIPGLERETKHYGHDALVSKVSCELPHDNIAYERFTPAGPVALLPNGTRDFSLVWTGKAEEVQALLALDDAAFLEALHTHFGDRVGRFLTVGKRLSFPLKLSYLKPVTAPHLTVIGNAAQTMHPVAGQGFNVGMRDAWELAQLLAQTPSEEWGMDRMMQAYQASRKADTRGGLLFTDFLVNVFSNDIVGLRKIRSLGLGLLDMLPLAKQHLVSKMSFGPRG” the “soluble on expression in E. coli” value was “not soluble”. For “MELLPQGQRNNTQVTFEDQQKINEFSKLIMRKDAIAQELSLQREEKEYLDDVSLEIELIDEDEPVQYKVGDLFIFMKQSKVTAQLEKDAERLDNKIETLEDKQRDIDSRLDALKAILYAKFGDNINLER”, the “soluble on expression in E. coli” value was “not soluble”. For “MDLEISEKIKAYRQVMSAKSPSDAALTWNLFDLPNNMELARFFSTLSKEEMAKFEQCVFVDGQDPKTYIKMHKMVESTATIALSEEIENKRTILVAEPNRGGVSGHEGEMASTSSGFRDGYHPCMDHTSYAEGLFTESEKAWELERLLKLQKEIAEAKSKIVKQKKPSIKSA”, the “soluble on expression in E. coli” value was “not soluble”. In the case of “MLFRVRSETDSQPPFACLNDIKLFDTDNIGRGINAAILNGTTGDIIEKATFDVTASDEKLMTWLLKVPHASLLVAASFGDVAEHVSRQSRQLFAAFGAQKIDNWRVGNAYAIIGQRGIRRGEAHETVAKFLEENTQQKLFEGCFDLPIAEIGGEVELKIDGPPVHRADESKLAELGAFEADLLQQNKDVEYGGKWKNCGMDRPCNEADTIPVHFFSGEHKDDHPKMCIGGRMLFDKDLNSAGRGLNLAMLEPKTGKVTAVAHFDTYEDESHGLEEWLDAVPTGYIVAVVSFDEASNQLSDMARRIFYEMGSSMIDRLKFRASWYFVGQKGIGAYTPFEDLNIPQGNNWANPIHTSFCLPKSLHKWAGRRDTSSSMTSSASNDVRNLPKRHFCAKYDRHEEFCGAANLDSPIMPRHLSDEQRSSDAIFNVPILVASGLAPDSLRITLESLLNQEGLNTQMVLVTYDKEYSENADLVSLFHVKSVAIQSNGSYNGRKTSWKSEEIAENPMKIDRKPPGGLGNQKFVFLGHQFF”, the “soluble on expression in E. coli” value was “not soluble”. With “MGSDKIHHHHHHMTLTANNKKRAVLRVRPGQFVVTPAIEQVAIRALRYLTSGFAIHLRGPAGTGKTTLAMHLANCLDRPIMLIFGDDEFKSSDLIGSESGYTHKKLLDNYIHSVLKVEDEFKQNWVDSRLTLACREGFTLVYDEFNRSRPEVNNVLLSALEEKILTLPPSSNQPEYLHVNPQFRAIFTSNPEEYCGVHSTQDALMDRLVTINMPEPDELTQTEILAQKTALNRADALLVVQLVKAFRSRTGGEKTSGLRSCLMIAKVCAEHNILVAPESSDFREICADVLFNRTNWSASEATTIFLELLNHLNLEEIEEFKNSITSEDTDAIADEDHNAINESGFPTIIDSQFGTLDSEVLEQPGVEDSIPFEREIYLYLQQYKSAALALLQQEFELSRTVATNALNSLEQKGLVSKNNHVYTIEEPNQP” the “soluble on expression in E. coli” value was “not soluble”. In the case of “MQATIYDLDGNTDGEVDLPDVFETPVRSDLIGKAVRAAQANRKQDYGSDEYAGLRTPAESFGSGRGQAHVPKLDGRARRVPQAVKGRSAHPPKTEKDRSLDLNDKERQLAVRSALAATADADLVADRGHEFDRDEVPVVVSDDFEDLVKTQEVVSLLEALDVHADIDRADETKIKAGQGSARGRKYRRPASILFVTSDEPSTAARNLAGADVATASEVNTEDLAPGGAPGRLTVFTESALAEVAER”, the “soluble on expression in E. coli” value was “soluble”. For “GSHMASDLLELTEDMEKEISNALGHGPQDEILSSAFKLRITRGDIQTLKNYHWLNDEVINFYMNLLVERNKKQGYPALHVFSTFFYPKLKSGGYQAVKRWTKGVNLFEQEIILVPIHRKVHWSLVVIDLRKKCLKYLDSMGQKGHRICEILLQYLQDESKTKRNSDLNLLEWTHHSMKPHEIPQQLNGSDSGMFTCKYADYISRDKPITFTQHQMPLFRKKMVWEILHQQLL”, the “soluble on expression in E. coli” value was “soluble”. With “MSATTKELGNSLWDSLFGTPGVQLTDDDIQNMPYASQYMQLNGGPQLFVVLAFAEDGQQKWVTQDQATLVTQHGRLVKTLLGGDNLIEVNNLAADPLIKPAQIVDGASWTRTMGWTEYQQVRYATARSVFKWDGTDTVKVGSDETPVRVLDEEVSTDQARWHNRYWIDSEGQIRQSEQYLGADYFPVKTTLIKAAKQLEHHHHHH” the “soluble on expression in E. coli” value was “soluble”. With “MSLEDGPVTNPRQEEPQKVVKEEGFARGADVSWLTQMEAEGLKFYTPDENRQEMECMDLLRDYCGVNSIRLRVWVNPKDGWNNMNDVIVKAKRAERLGLRTMIDFHFSDTWADPGHQEMPEAWKELSFDDLKIALSEHVKSVLTALKAVGVTPEWVQVGNETTPGMMLPVGSVDNPEQLTALNNAGYDAVKAICPDAKVIVHLDAGNDQWVYNRMFDILQANGGKYDMIGMSLYPYWAEQEGKTGGWLKVADDCIANIKHVKQKYNKPVMICEIGMPYDQAEACKQLITKMMQADVEGIFYWEPQAPNGYNDGYNLGCFDNNAPTIALDAFKIEGHHHHHH” the “soluble on expression in E. coli” value was “soluble”. With “LKKKVGIISLGCPKNLVDSEIMLGLLKKNDFEITSDSEEANVIIVNTCGFIESAKEESINTILEMANYKNKNCEMLIVAGCLAQRYKDEIIKEMPEVDAVVGVSGYDEIAKVIEEFYSKKNDKNDKEKAVFHKDTLSVEYLNNERLLSTNSGYAYLKISEGCDNRCTYCAIPYIRGPYRSRKMEDIISEAEFLAGKGVKEVILVAQDVTVYGKDLYGQKKLVELVREVSGIEGIEWIRLLYTYPEEIDEELIKEIANNEKVVKYLDIPIQHASDKILKLMGRRSTSEGIRNILDRLRAEVPDIVLRTSLIVGFPGEDEKDFKILYDFVRKYEFDRLGVFTYSREEGTPAYDLKPQIKKSVKESRRNDIMQLQKEIVQRKNESRLEKVYKTLVEGVSEDGIFYYGRTYAEAPDIDGSVYFTSAEPLKFGEFVNVKVLNIDDYDLIGEVINESSK” the “soluble on expression in E. coli” value was “soluble”. In the case of “SVDYVFNKVMQPHQQMRIRVALGIEDDLRGGGYNVDQSKIAIGSGGFMGKGFLKGTQTKLKYVPEQDTDFIFCTVGEEQG”, the “soluble on expression in E. coli” value was “not soluble”. For “MSSLLTIALAVTISCVNTVEDQYFGGQNAEPVAKVEQKATSNNTLADLEKDPLYPYIDKQNKLVEKNGIQYIENEENILVLANKDYSLQPTYTPPDLVRPNVTFSFGNEQVEKAQLRKEAGTALEEMFKAANQDGKKLFAVSGYRSYKRQQEVFQAEVNSKGDKKAREAVAYPGTSEHQTGLAMDISSENQSYELTEAFGTTPEGKWLEENAHNYGFILRYMKGREDITKYQYESWHYRYVGKDAATIIYKNNWTLEEFFEHVKALQKKVDAAK”, the “soluble on expression in E. coli” value was “not soluble”.
